Assay results reported in patent US20220356229A1 (published 2022).
Read-outs that look alike come from different tables or passages of the source.

Tests used:
[1] = biological target: Spike protein of authentic SARS-CoV-2/MT020880.1 (live virus) (SARS-CoV-2, UniProt P0DTC2 14-1273); assay: cell-based or functional assay
[2] = biological target: Spike protein of SARS-CoV-2 hCoV-19/Canada/ON_ON-VIDO-01-2/202 (live virus) (SARS-CoV-2, UniProt P0DTC2 14-1273); assay: cell-based or functional assay
[3] = biological target: SARS-CoV-2 Spike protein (wild type) (SARS-CoV-2, UniProt P0DTC2 14-1208)
[4] = biological target: SARS-CoV-2 Spike (S) protein, wild type, full length (SARS-CoV-2, UniProt P0DTC2 14-1273)
[5] = biological target: SARS-CoV-2 Spike protein (wild type) (SARS-CoV-2, UniProt P0DTC2 14-1208); assay: SPR (Carterra LSA), mAb coupled to HC30M chip, Spike titrated; Example 4 methods
[6] = biological target: SARS-CoV-2 Spike protein on pseudotyped lentivirus (SARS-CoV-2, UniProt P0DTC2 14-1273); assay: cell-based or functional assay
[7] = biological target: SARS-CoV-2 full length Spike protein, wild type, expressed on the surface of transiently transfected CHO cells (SARS-CoV-2, UniProt P0DTC2 14-1273)
[8] = biological target: SARS-CoV-2 Spike protein, wild type, full length (SARS-CoV-2, UniProt P0DTC2 14-1208)

B1: anti-SARS-CoV-2 antibody 1037 (antibody, V domains shown)
VH: QITLKESGPTLVKPTQTLTLTCTFSGFSLSTSGVGVGWIRQPPGKALEWLALIYWDDDKRYSPSLKSRLTITKDTSKNQVVLTMTNMDPVDTATYYCAHHTITRINDYWGQGTLVTVSS
VL: QSALTQPASVSGSPGQSITISCTATSSDVGAYNYVSWYQQHPGKAPKLMIYDVSKRPSGVSNRFSGSKSGNTASLTISGLQAEDEADYYCSSYTSSSTVFGGGTKLTVLG
- IC50 (ng/mL), immunofluorescence neutralization assay [1]: 32.8 ng/mL
- IC50 (µg/mL), plaque reduction neutralization test [2]: 0.0096 µg/mL

B2: anti-SARS-CoV-2 antibody 278 (antibody, V domains shown)
VH: QVQLVQSGAEVKKPGASVKVSCKASGYTFTSYYMHWVRQAPGQGLEWMGIINPSGGSTSYAQKFQGRVTMTRDTSTSTVYMELSSLRSEDTAVYYCARDHSNADPYYDFWSGYYTRTYYYGMDVWGQGTTVTVSS
VL: not shown
- Kd [3]: 4.28 nM

B3: anti-SARS-CoV-2 antibody 1015 (antibody, V domains shown)
VH: EVQLVESGGGLVQPGGSLRLSCAASGFTFSSYWMHWVRQAPGKGLVWVSHINSDGSSTSYADSVKGRFTISRDNAKNTLYLQMNSLRAEDTAVYYCARGLRYFDLDVWGQGTTVTVSS
VL: QSVLTQPPSVSEAPRQRVTISCSGSSSNIGNNAVNWYQQLPGKAPKLLIFYDDLLPSGVSDRFSGSKSGTSASLAISGLQSEDEADYYCAAWDDSLNGGVFGGGTKLTVLG
- IC50 (ng/mL), immunofluorescence neutralization assay [1]: 260 ng/mL

B4: anti-SARS-CoV-2 antibody 555 (antibody, V domains shown)
VH: QVQLVQSGAEVKKPGSSVKVSCKASGGTFSNYAISWVRQAPGQGLEWMGRIIPILGIANYAQKFQGRVTITADKSTSTAYMELSSLRSEDTAVYYCARGYYEARHYYYYYAMDVWGQGTAVTVSS
VL: not shown
- IC50 (ng/mL), immunofluorescence neutralization assay [1]: 49.2 ng/mL
- IC50 (µg/mL), plaque reduction neutralization test [2]: 0.0083 µg/mL

B5: antibody 377 (antibody, V domains shown)
VH: EVQLVESGGGLVKPGGSLRLSCATSGFTFRTYSMNWVRQAPGKGLEWVSSITTSRNYIYYADSVRGRFTISGDNANNSLYLQMNSLRAEDTAVYYCARVRFVRDTRKPYYFDFWGQGTLVTVSS
VL: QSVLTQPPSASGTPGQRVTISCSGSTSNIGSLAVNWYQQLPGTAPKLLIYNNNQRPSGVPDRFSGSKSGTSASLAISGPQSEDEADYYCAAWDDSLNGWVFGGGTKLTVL
- fold over isotype (median fluorescence intensity) [4]: 0.78 fold over isotype

B6: anti-SARS-CoV-2 antibody 1075 (antibody, V domains shown)
VH: QVQLVQSGAEVKKPGASVKVSCKVSGYTLIELSMHWVRQAPGKGLEWMGGFDPEDGETIYAQKFQGRVTMTEDTSTDTAYMELSSLRSEDTAVYYCATEWAYYGSGSYLGYWGQGTLVTVSS
VL: EIVMTQSPATLSVSPGERATLSCRASQSVSSNLAWFQQKPGQAPRLLIYGASTRVTVIPARFSGSGSGTEFTLTISSLQSEDFAVYYCQQYNNWPRTFGQGTKVEIKR
- IC50 (ng/mL), immunofluorescence neutralization assay [1]: 89.6 ng/mL
- IC50 (µg/mL), plaque reduction neutralization test [2]: 0.409 µg/mL

B7: anti-SARS-CoV-2 antibody 1091 (antibody, V domains shown)
VH: QVQLVESGGGVVQPGRSLRLSCAASGFTFSNYAMHWVRQAPGKGLEWVAVISYDGSNKYYADSVKGRFTISRDNSKNTLYLQMNSLRAEDTAVYYCARDKLLWFGELLFDMDVWGKGTTVTVSS
VL: DIQMTQSPSSLSASVGDRVTITCRASQGISNYLAWFQQKPGKAPKSLIYDASSLQSGVPSKFSGSGSGTDFTLTISSLQPEDFATYYCQQYNSYPPSFGPGTKVDIK
- Kd [5]: 0.054 nM

B8: anti-SARS-CoV-2 antibody 1118 (antibody, V domains shown)
VH: QVQLVESGGGVVQPGRSLRLSCAASGFTFSTYAMHWVRQAPGKGLEWVAVISYDGSNKYYSDSVKGRFTISRDNSKNTLYLQMNSLRAEDTAVYYCARAHTSGWPLGDYFDYWGQGTLVTVSS
VL: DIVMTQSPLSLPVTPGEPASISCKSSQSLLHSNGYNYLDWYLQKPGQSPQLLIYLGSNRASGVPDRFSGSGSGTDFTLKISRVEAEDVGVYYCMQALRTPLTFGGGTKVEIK
- Pseudo-neutralization IC50 [6]: 0.026 µg/mL
- Kd [5]: 0.223 nM

B9: antibody 577 (antibody, V domains shown)
VH: QLPLQESGPGLVKPSETLSLTCTVSGGSISSSSYYWGWIRQPPGKGLEWIGSIYYSGSTFYNPSLKSRVTISGDTSKNQFSLKVTSVTAADTAVYYCARGSGSSGWYAFDIWGQGTMVTVSS
VL: QSALTQPASVSGSPGQSITISCTGTSSDFGGYNYVSWYQQHPDKAPKLMIYDVSNRPSGVSNRFSGSKSGNTASLTISGLQAEDEADYYCSSYTTSSTWVFGGGTKLTVL
- median fluorescence intensity, fold over isotype control [7]: 1.14 fold over isotype

B10: anti-SARS-CoV-2 antibody 1081 (antibody, V domains shown)
VH: QITLKESGPTLVKPTQTLTLTCTFSGFSLSTSRVGVGWIRQPPGKALEWLALIYWNDGKLYSPSLKSRLTITKDTSKNQVVLTLTNMDSVDTATYFCARGQTGTPLYDAFDFWGRGTMVTVSS
VL: SYVLTQPPSVSVAPGKTAGITCGGDNFETKSVSWYQHKPGQAPVLVVYGNANRPSGIPERFSASKSGNTATLTISRVEAGDEADYYCQVWDSRSFHYVVFGGGTKLTVL
- Kd [5]: 0.093 nM

B11: antibody 576 (antibody, V domains shown)
VH: QVQLVESGGGVVQPGRSLRLSCAASGFTFSSYAMHWVRQAPGKGLEWVAVISYDGSNKYYADSVKGRFTISRDNSKNTLYLQMNSLRAEDTAVYYCAKAGGGSYYRGFDYWGQGTLVTVSS
VL: DIQLTQSPSFLSASVGDRVTITCRASQGISSYLAWYQQKPGKAPKLLIYAASTLQSGVPSRFSGSGSGTEFTLTISSLQPEDFATYYCQQLNSYPTFGPGTKVDIK
- median fluorescence intensity, fold over isotype control [7]: 8.75 fold over isotype

B12: antibody 474 (antibody, V domains shown)
VH: EVQLVESGGGLVQPGGSLRLSCAASGFTFSSYWMHWVRQAPGKGLVWVSRINSDGSSTSYADSVKGRFTISRDNAKNTLYRQMNSLRAEDTAVYYCALGPLDIVGSYYYYGMDVWGQGTTVTVSS
VL: NFMLTQPHSVSESPGKTVTISCTGSSGSIASNYVQWYQQRPGSAPTTVIYEDNQRPSGVPDRFSGSIDSSSNSASLTISGLKTEDEADYYCQSYDSSNQDVVFGGGTKLTVL
- binding signal (fold over isotype control) [8]: 1.47 fold over isotype

B13: anti-SARS-CoV-2 antibody 307 (antibody, V domains shown)
VH: QVQLVESGGGVVQPGRSLRLSCAASGFTFSSYGMHWVRQAPGKGLEWVAVIWYDGSNKYYADSVKGRFTISRDNSKNTLYLQMNSLRAEDTAVYYCAKGYTWDYYYYGMDVWGQGTTVTVSS
VL: not shown
- kon [3]: 101000 M⁻¹ s⁻¹

B14: anti-SARS-CoV-2 antibody 923 (antibody, V domains shown)
VH: EVQLVESGGGVVRPGGSLRLSCAASGFIFDDYDMTWVRQAPGKGLEWVSGISWNGGNTGYADSVKGRFTISRDNAKNSLYLQMNSLRAEDTALYHCAVIMSPIPRYSGYDWAGGAFDIWGQGTMVTVSS
VL: SSELTQDPAVSVALGQTVRITCQGDSLRSYYASWYQQKPGQVPILVIYDKNNRPSGIPDRFSGSSSGNTASLTITGAQAEDEADYYCNSRDSSGNAVVFGGGTKLTVLG
- IC50 (ng/mL), immunofluorescence neutralization assay [1]: 121 ng/mL
- IC50 (µg/mL), plaque reduction neutralization test [2]: 0.01 µg/mL

B15: anti-SARS-CoV-2 antibody 1098 (antibody, V domains shown)
VH: EVQLLESGGGLVQPGGSLRLSCAASGFTFNSYAMSWVRQAPGKGLEWVSAISGSGGSTYYADSVKGRFSISRDNAKNTLFLQMNSLRAEDTAVYYCARSGGNFDYWGQGTLVTVSL
VL: SYELTQPPSVSVSPGQTARITCSGDVLAKRYVYWYQQKPGQAPVLVIYRDSERPSGIPERFSGSSSGTTVTLTISGVQAVDEADYYCQSADSSGTLYVFGTGTKVTVL
- Pseudo-neutralization IC50 [6]: 0.087 µg/mL
- Kd [5]: 0.173 nM
